The results in this text go back to article PMC12354141.

Test [1] concerns the target human neonatal Fc receptor (FcRn), His-tagged (human) (UniProt P55899). As to the kind of experiment: BLI.
Test [2] has as its target FcγRIIIa/CD16a 158V, His-tagged (human). The test can be described thus: BLI.

UniProt P55899, sequence (P55899 24-297, chain 1 of 2): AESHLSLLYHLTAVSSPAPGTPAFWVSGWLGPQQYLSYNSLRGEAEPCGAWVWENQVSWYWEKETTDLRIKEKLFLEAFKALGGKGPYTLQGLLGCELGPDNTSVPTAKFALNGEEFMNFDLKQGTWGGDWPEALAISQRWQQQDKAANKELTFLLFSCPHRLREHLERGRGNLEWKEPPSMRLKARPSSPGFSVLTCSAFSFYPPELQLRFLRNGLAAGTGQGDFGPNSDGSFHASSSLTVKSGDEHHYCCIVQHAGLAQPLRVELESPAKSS
UniProt P55899, sequence (P61769 21-119, chain 2 of 2, further chain): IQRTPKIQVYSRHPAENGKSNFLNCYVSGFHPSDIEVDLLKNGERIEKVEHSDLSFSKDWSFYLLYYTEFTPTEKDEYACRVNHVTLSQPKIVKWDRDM
FcγRIIIa/CD16a 158V, His-tagged (human), sequence (P08637 17-208): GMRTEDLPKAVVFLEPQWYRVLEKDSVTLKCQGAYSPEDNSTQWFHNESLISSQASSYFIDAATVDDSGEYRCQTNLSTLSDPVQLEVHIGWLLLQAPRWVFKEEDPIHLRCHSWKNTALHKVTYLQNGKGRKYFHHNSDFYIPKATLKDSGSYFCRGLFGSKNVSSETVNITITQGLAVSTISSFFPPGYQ

In test [1], “RGB-14-P (Gedeon Richter's proposed denosumab biosimilar to Prolia^®) (antibody)” registered a Kd of 17.2 to 30.1 nM.
“EU Xgeva^® (denosumab reference drug product, EU-licensed) (antibody)”: the Kd in test [1] was in the range of 14.7 to 36.2 nM.
Regarding “US Xgeva^® (denosumab reference drug product, US-licensed) (antibody)”, the Kd in test [1] lay within 18.1 to 33.5 nM.
“US Prolia^® (denosumab reference drug product, US-licensed) (antibody)” returned a Kd in test [1] of 19.7 to 29.2 nM.
As to “EU Prolia^® (denosumab reference drug product, EU-licensed) (antibody)”, in test [1], the Kd is 17.7 to 38.5 nM.
On the same count and under the same terms, for “RGB-14-X (Gedeon Richter's proposed denosumab biosimilar to Xgeva^®) (antibody)” the value was 21.6 to 27.2 nM.
In test [2], “denosumab (as such; mean over the products) (antibody)” displayed a Kd of 15000 nM. That is a double-digit micromolar value.
